Consider one molecule from patent US20210139548A1 (published 2021).

Assay [1] deals with T1, human neuropeptide Y2 receptor (human, UniProt P49146 1-381).
T1 sequence (looked up): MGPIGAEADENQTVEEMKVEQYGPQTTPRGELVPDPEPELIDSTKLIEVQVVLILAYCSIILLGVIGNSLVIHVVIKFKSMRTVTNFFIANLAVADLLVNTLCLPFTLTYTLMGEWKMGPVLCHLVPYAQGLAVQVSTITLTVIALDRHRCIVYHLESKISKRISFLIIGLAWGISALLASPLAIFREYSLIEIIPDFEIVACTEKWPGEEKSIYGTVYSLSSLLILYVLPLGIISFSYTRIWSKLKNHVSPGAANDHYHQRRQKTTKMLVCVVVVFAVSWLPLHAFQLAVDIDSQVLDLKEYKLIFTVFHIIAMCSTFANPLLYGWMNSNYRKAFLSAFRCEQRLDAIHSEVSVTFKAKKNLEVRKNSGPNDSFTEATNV
As to the kind of experiment: cell-based or functional assay.

In assay [2] the target is T1, human neuropeptide Y2 receptor. As to the kind of experiment: radioligand competition (125I-PYY(1-36)), hNPY2R membranes. The essentials:
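Commercial human Y2 receptor membranes (0.5 μg protein/well) were incubated with peptide for 2 h at room temperature in 50 mM HEPES, 5 mM MgCl₂, 1 mM CaCl₂, pH 7.4, with 0.2% ovalbumin. Bound radioligand was separated on PEI-soaked GF/C filters and counted by scintillation, and IC₅₀ came from nonlinear sigmoidal regression.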

*1 amine or outer side, *2 acyl side, *3 side chain or, on linkers, in order; H or OH if unused. Side-chain parts run from the residue outwards. The star is where a group is joined. C18 diacid = O=C(O)CCCCCCCCCCCCCCCCC(=O)*; γGlu = O=C(O)[C@H](CCC(=O)[*:2])N[*:1]; Isovaleryl = CC(C)CC(=O)*; AEEA = NCCOCCOCC(=O)O

B1: Ref. 3 (peptide)
peptide: Isovaleryl-RPEK([AEEA-AEEA-γGlu-C18 diacid])PGEDASPEELQRYYVSLRAYYNWLTRQRY-NH2
SMILES: CC(C)CC(=O)N[C@@H](CCCNC(=N)N)C(=O)N1CCC[C@H]1C(=O)N[C@@H](CCC(=O)O)C(=O)N[C@@H](CCCCNC(=O)COCCOCCNC(=O)COCCOCCNC(=O)CC[C@H](NC(=O)CCCCCCCCCCCCCCCCC(=O)O)C(=O)O)C(=O)N1CCC[C@H]1C(=O)NCC(=O)N[C@@H](CCC(=O)O)C(=O)N[C@@H](CC(=O)O)C(=O)N[C@@H](C)C(=O)N[C@@H](CO)C(=O)N1CCC[C@H]1C(=O)N[C@@H](CCC(=O)O)C(=O)N[C@@H](CCC(=O)O)C(=O)N[C@@H](CC(C)C)C(=O)N[C@@H](CCC(N)=O)C(=O)N[C@@H](CCCNC(=N)N)C(=O)N[C@@H](Cc1ccc(O)cc1)C(=O)N[C@@H](Cc1ccc(O)cc1)C(=O)N[C@H](C(=O)N[C@@H](CO)C(=O)N[C@@H](CC(C)C)C(=O)N[C@@H](CCCNC(=N)N)C(=O)N[C@@H](C)C(=O)N[C@@H](Cc1ccc(O)cc1)C(=O)N[C@@H](Cc1ccc(O)cc1)C(=O)N[C@@H](CC(N)=O)C(=O)N[C@@H](Cc1c[nH]c2ccccc12)C(=O)N[C@@H](CC(C)C)C(=O)N[C@H](C(=O)N[C@@H](CCCNC(=N)N)C(=O)N[C@@H](CCC(N)=O)C(=O)N[C@@H](CCCNC(=N)N)C(=O)N[C@@H](Cc1ccc(O)cc1)C(N)=O)[C@@H](C)O)C(C)C
With B1, in assay [1], the “EC50 (hY2 cAMP, HTRF cAMP Gi assay)” value was determined as 0.375 nM. For the same molecule, the Ki in assay [2] is 1.69 nM.

A word on the Ki: it is the equilibrium dissociation constant of an inhibitor or competing ligand from its target. A lower Ki goes with tighter binding.
